{"source": "paper PMC10315472", "test_in_all_cases": "SPR", "key": {"[1]": {"target": "wild-type SARS-CoV-2 Spike receptor-binding domain (SARS-CoV-2) (UniProt P0DTC2)"}, "[2]": {"target": "emorisin (Emergomyces orientalis)"}, "AMSIN (actinomyces)": {"target": "AMSIN (actinomyces)"}}, "data": [{"substance": "(ΔGFG)AMSIN (peptide)", "values": [{"measurement": "Kd", "setting": "[1]", "result": 119, "unit": "nM"}]}, {"substance": "wild-type SARS-CoV-2 Spike receptor-binding domain (from UniProt P0DTC2 319-527) (domain or fragment)", "values": [{"measurement": "Kd", "setting": "[2]", "result": 7.6, "unit": "nM"}, {"measurement": "Kd", "setting": "AMSIN (actinomyces)", "result": 193, "unit": "nM"}]}]}
